Results taken from patent US20230331827A1, “POTASSIUM CHANNEL INHIBITORS” (priority 2017, published 2023).

B1: KB_A07_ShK (antibody, V domains shown)
VH: EVQLVESGGGLVRPGGSLRLSCAASGFTFSSYAMSWVRQAPGKGLEWVSAISGSGGSTYYADSVKGRFTISRDNTKNSLYLQMTSLRADDTAFYYCVKDFGPGYGTGWFDYWGPGTLVTVSS
VL: NWYQQKPGKAPKLLIYAAGVRSCIDTIPKSRCTAFQCKHSMKYRLSFCRKTCGTCSRSGVPSRFSGSGSGTDFTLTISSLQPEDFATYYCQQGASPPYTFGQGTKVEIKR
B2: KB_A01 Fab (Fab, V domains shown)
VH: EVQLVESGGGLVRPGGSLRLSCAASGFTFSSYAMSWVRQAPGKGLEWVSAISGSGGSTYYADSVKGRFTISRDNTKNSLYLQMTSLRADDTAFYYCVKDFGPGYGTGWFDYWGPGTLVTVSS
VL: YLNWYQQKPGKAPKLLIYAAEVCPRILMRCKQDSDCLAGCVCGPNGFCGGTSGVPSRFSGSRSGTEFTLTISSLQPEDFATYYCQKVDDYPLTFGGGTKVEIKR
B3: KB_A01 (scFv on phage) (scFv, V domains shown)
VH: EVQLVESGGGLVRPGGSLRLSCAASGFTFSSYAMSWVRQAPGKGLEWVSAISGSGGSTYYADSVKGRFTISRDNTKNSLYLQMTSLRADDTAFYYCVKDFGPGYGTGWFDYWGPGTLVTVSS
VL: YLNWYQQKPGKAPKLLIYAAEVCPRILMRCKQDSDCLAGCVCGPNGFCGGTSGVPSRFSGSRSGTEFTLTISSLQPEDFATYYCQKVDDYPLTFGGGTKVEIKR
B4: KB_C10 (scFv on phage) (scFv, V domains shown)
VH: EVQLVESGGGLVRPGGSLRLSCAASGFTFSSYAMSWVRQAPGKGLEWVSAISGSGGSTYYADSVKGRFTISRDNTKNSLYLQMTSLRADDTAFYYCVKDFGPGYGTGWFDYWGPGTLVTVSS
VL: AVNWYQQLPGKAPKLLIYAAGPCPRILMRCKQDSDCLAGCVCGPNGFCGADSGVSDRFSGSKSGTSASLAITGLQAEDEGDYYCAAWDDSLNGLVFGGGTKVTVLG
B5: KB_B10 (scFv on phage) (scFv, V domains shown)
VH: EVQLVESGGGLVRPGGSLRLSCAASGFTFSSYAMSWVRQAPGKGLEWVSAISGSGGSTYYADSVKGRFTISRDNTKNSLYLQMTSLRADDTAFYYCVKDFGPGYGTGWFDYWGPGTLVTVSS
VL: QSVLTQLPSVSEAPRQRVTITCGRAMCPRILMRCKQDSDCLAGCVCGPNGFCGTGNWYQQHPGKAPKLIIFDVSKRPSGVPDRFSASKSGNTASLTISGLQAEDEADYYCNSYTSSNTWVFGGGTQLTVLG
B6: KB_A10 (scFv on phage) (scFv, V domains shown)
VH: EVQLVESGGGLVRPGGSLRLSCAASGFTFSSYAMSWVRQAPGKGLEWVSAISGSGGSTYYADSVKGRFTISRDNTKNSLYLQMTSLRADDTAFYYCVKDFGPGYGTGWFDYWGPGTLVTVSS
VL: AVNWYQQLPGKAPKLLIYAAGGCPRILMRCKQDSDCLAGCVCGPNGFCGSNSGVPDRFSGSKSGNTASLTISGLQSEDEADYYCAAWDDSLSGVVFGGGTQLTVLG
B7: KB_B01 (scFv on phage) (scFv, V domains shown)
VH: EVQLVESGGGLVRPGGSLRLSCAASGFTFSSYAMSWVRQAPGKGLEWVSAISGSGGSTYYADSVKGRFTISRDNTKNSLYLQMTSLRADDTAFYYCVKDFGPGYGTGWFDYWGPGTLVTVSS
VL: AVNWYQQLPGKAPKLLIYAAAGCPRILMRCKQDSDCLAGCVCGPNGFCGTRSGVSDRFSGSKSGTSASLAISGLRSEDEADYYCAAWDDSLRAYVFGTGTKLTVLG
B8: KB_A06 (scFv on phage) (scFv, V domains shown)
VH: EVQLVESGGGLVRPGGSLRLSCAASGFTFSSYAMSWVRQAPGKGLEWVSAISGSGGSTYYADSVKGRFTISRDNTKNSLYLQMTSLRADDTAFYYCVKDFGPGYGTGWFDYWGPGTLVTVSS
VL: AVNWYQQLPGKAPKLLIYAAVRCPRILMRCKQDSDCLAGCVCGPNGFCGTPSGIPERFSGSIDRSTNSASLTISGLKTEDEADYYCQSYDSSNLNWVFGGGTKLTVLG
B9: KB_A03 (scFv on phage) (scFv, V domains shown)
VH: EVQLVESGGGLVRPGGSLRLSCAASGFTFSSYAMSWVRQAPGKGLEWVSAISGSGGSTYYADSVKGRFTISRDNTKNSLYLQMTSLRADDTAFYYCVKDFGPGYGTGWFDYWGPGTLVTVSS
VL: AVNWYQQLPGKAPKLLINAADRCPRILMRCKQDSDCLAGCVCGPNGFCGTNSGVPDRFSGSSSGNTASLTITGAQAEDEADYYCNSRDSSGNNWVFGGGTKVTVLG
B10: KB_B11 (scFv on phage) (scFv, V domains shown)
VH: EVQLVESGGGLVRPGGSLRLSCAASGFTFSSYAMSWVRQAPGKGLEWVSAISGSGGSTYYADSVKGRFTISRDNTKNSLYLQMTSLRADDTAFYYCVKDFGPGYGTGWFDYWGPGTLVTVSS
VL: TQPPSVSEAPRQRVTITCGSRPCPRILMRCKQDSDCLAGCVCGPNGFCGSHNWYQQLPGSSPTTVIYEDNQRPSGVPDRFSGSIDRSSNSASLTISGLKTEDEADYYCQSYDSSNHRVVFGGGTKLTVLG
B11: KB_C08 (scFv on phage) (scFv, V domains shown)
VH: EVQLVESGGGLVRPGGSLRLSCAASGFTFSSYAMSWVRQAPGKGLEWVSAISGSGGSTYYADSVKGRFTISRDNTKNSLYLQMTSLRADDTAFYYCVKDFGPGYGTGWFDYWGPGTLVTVSS
VL: AVNWYQQLPGKAPKLLIYAAAVCPRILMRCKQDSDCLAGCVCGPNGFCGTRSGIPERFSGSKSGTSAFLAISGLRSEDEADYYCAAWDDSLSGVVFGGGTKLTVLG
B12: KB_C09 (scFv on phage) (scFv, V domains shown)
VH: EVQLVESGGGLVRPGGSLRLSCAASGFTFSSYAMSWVRQAPGKGLEWVSAISGSGGSTYYADSVKGRFTISRDNTKNSLYLQMTSLRADDTAFYYCVKDFGPGYGTGWFDYWGPGTLVTVSS
VL: AVNWYQQLPGKAPKLLIYAAGRCPRILMRCKQDSDCLAGCVCGPNGFCGGGSGVPDRFSGSIDSSSNSASLTISGLRAEDEADYYCQSYDSSNHWVFGGGTKLTVLG
B13: KB_A11 (scFv on phage) (scFv, V domains shown)
VH: EVQLVESGGGLVRPGGSLRLSCAASGFTFSSYAMSWVRQAPGKGLEWVSAISGSGGSTYYADSVKGRFTISRDNTKNSLYLQMTSLRADDTAFYYCVKDFGPGYGTGWFDYWGPGTLVTVSS
VL: YLNWYQQKPGKAPKLLIYAAEICPRILMRCKQDSDCLAGCVCGPNGFCGPSSGIPARFSGSGYGTDFTLTINNIESEDAAYYFCLQHDNFPYTFGQGTKVEIKR
B14: KB_A07_MoKa-1 (antibody, V domains shown)
VH: EVQLVESGGGLVRPGGSLRLSCAASGFTFSSYAMSWVRQAPGKGLEWVSAISGSGGSTYYADSVKGRFTISRDNTKNSLYLQMTSLRADDTAFYYCVKDFGPGYGTGWFDYWGPGTLVTVSS
VL: DIQMTQSPSSLSASVGDRVTITCRASQSISSYLNWYQQKPGKAPKLLIYAAGVINVKCSLPQQCIKPCKDAGMRFGKCMNKKCRCYSSRSGVPSRFSGSGSGTDFTLTISSLQPEDFATYYCQQGASPPYTFGQGTKVEIKRT
B15: KB_A02 (scFv on phage) (scFv, V domains shown)
VH: EVQLVESGGGLVRPGGSLRLSCAASGFTFSSYAMSWVRQAPGKGLEWVSAISGSGGSTYYADSVKGRFTISRDNTKNSLYLQMTSLRADDTAFYYCVKDFGPGYGTGWFDYWGPGTLVTVSS
VL: AVNWYQQLPGKAPKLLIYAAAKCPRILMRCKQDSDCLAGCVCGPNGFCGGASGVSDRFSGSIDSSSNSASLTISGLKPEDEGDYYCQSYDSSNRWVFGGGTKVTVLG
B16: KB_A07_KTX (antibody, V domains shown)
VH: EVQLVESGGGLVRPGGSLRLSCAASGFTFSSYAMSWVRQAPGKGLEWVSAISGSGGSTYYADSVKGRFTISRDNTKNSLYLQMTSLRADDTAFYYCVKDFGPGYGTGWFDYWGPGTLVTVSS
VL: DIQMTQSPSSLSASVGDRVTITCRASQSISSYLNWYQQKPGKAPKLLIYAAGVGVEINVKCSGSPQCLKPCKDAGMRFGKCMNRKCHCTPKSRSGVPSRFSGSGSGTDFTLTISSLQPEDFATYYCQQGASPPYTFGQGTKVEIKR
B17: KB_A05 (scFv on phage) (scFv, V domains shown)
VH: EVQLVESGGGLVRPGGSLRLSCAASGFTFSSYAMSWVRQAPGKGLEWVSAISGSGGSTYYADSVKGRFTISRDNTKNSLYLQMTSLRADDTAFYYCVKDFGPGYGTGWFDYWGPGTLVTVSS
VL: AVNWYQQLPGKAPKLLIYAADKCPRILMRCKQDSDCLAGCVCGPNGFCGGGSGIPERFSGSKSGTSASLAISGLRSEDEADYYCATWDDNLNGVVFGGGTKLTVLG
B18: KB_C07 (scFv on phage) (scFv, V domains shown)
VH: EVQLVESGGGLVRPGGSLRLSCAASGFTFSSYAMSWVRQAPGKGLEWVSAISGSGGSTYYADSVKGRFTISRDNTKNSLYLQMTSLRADDTAFYYCVKDFGPGYGTGWFDYWGPGTLVTVSS
VL: AVNWYQQLPGKAPKLLIYAAVGCPRILMRCKQDSDCLAGCVCGPNGFCGSASGVSDRFSGSKSGTSASLAISGLRSEDEADYYCASWDDSLRGYVFGTGTKVTVLG
B19: KB_B02 (scFv on phage) (scFv, V domains shown)
VH: EVQLVESGGGLVRPGGSLRLSCAASGFTFSSYAMSWVRQAPGKGLEWVSAISGSGGSTYYADSVKGRFTISRDNTKNSLYLQMTSLRADDTAFYYCVKDFGPGYGTGWFDYWGPGTLVTVSS
VL: AVNWYQQLPGKAPKLLIYAAVGCPRILMRCKQDSDCLAGCVCGPNGFCGTGSGIPERFSGSKSGNTASLTISGLQAEDEGDYYCAAWDDSLSGPVFGGGTKLTVLG
B20: KB_A09 (scFv on phage) (scFv, V domains shown)
VH: EVQLVESGGGLVRPGGSLRLSCAASGFTFSSYAMSWVRQAPGKGLEWVSAISGSGGSTYYADSVKGRFTISRDNTKNSLYLQMTSLRADDTAFYYCVKDFGPGYGTGWFDYWGPGTLVTVSS
VL: AVNWYQQLPGKAPKLLIYAAERCPRILMRCKQDSDCLAGCVCGPNGFCGTPSGVPDRFSGSIDTFSNSASLTISGLKTEDEADYYCQSYDSSHHWVFGGGTKLTVLG
B21: KB_B12 (scFv on phage) (scFv, V domains shown)
VH: EVQLVESGGGLVRPGGSLRLSCAASGFTFSSYAMSWVRQAPGKGLEWVSAISGSGGSTYYADSVKGRFTISRDNTKNSLYLQMTSLRADDTAFYYCVKDFGPGYGTGWFDYWGPGTLVTVSS
VL: TQPPSVSEAPRQRVTITCGERPCPRILMRCKQDSDCLAGCVCGPNGFCGANNWYQQLPGSSPTTVIYEDNQRPSGVPDRFSGSIDSSSNSASLTISGLKTEDEADYYCQSYDSSNQVFGGGTKVTVLG

Legend:
human Kv1.3 (human) = human Kv1.3 (human) (UniProt P22001); assay: cell-based or functional assay
Chain of human Kv1.3 (human) (P22001 whole entry): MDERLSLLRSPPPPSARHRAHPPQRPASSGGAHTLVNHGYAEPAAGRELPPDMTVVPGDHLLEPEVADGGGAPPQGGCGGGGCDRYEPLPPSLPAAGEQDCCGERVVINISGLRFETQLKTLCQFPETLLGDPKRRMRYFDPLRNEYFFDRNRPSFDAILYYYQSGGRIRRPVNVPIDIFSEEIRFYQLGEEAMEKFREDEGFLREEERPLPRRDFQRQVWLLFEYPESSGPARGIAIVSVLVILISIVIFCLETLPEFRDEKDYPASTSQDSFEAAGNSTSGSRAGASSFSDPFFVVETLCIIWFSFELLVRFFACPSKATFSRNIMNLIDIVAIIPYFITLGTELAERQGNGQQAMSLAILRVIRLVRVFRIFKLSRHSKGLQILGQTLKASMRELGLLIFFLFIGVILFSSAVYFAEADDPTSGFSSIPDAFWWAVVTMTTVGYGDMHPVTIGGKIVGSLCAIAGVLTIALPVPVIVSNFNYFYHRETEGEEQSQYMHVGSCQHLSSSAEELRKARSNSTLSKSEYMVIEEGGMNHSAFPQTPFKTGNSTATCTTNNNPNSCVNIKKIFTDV

trypsin [1] = assay: TRF, 10 ug/mL Fab on trypsin
trypsin [2] = assay: TRF, 0.6 ug/mL Fab on trypsin
trypsin [3] = assay: TRF, 2.4 ug/mL Fab on trypsin
trypsin [4] = assay: phage TRF on trypsin

Binder	Tryspin binding signal (FU) (trypsin [4])	further results
B1	–	IC50, huKv1.3 current, QPatch patch clamp (human Kv1.3 (human)): 40 nM
B2	–	TRF signal (trypsin [1]): 55600; TRF signal (trypsin [2]): 2390; TRF signal (trypsin [3]): 16600
B3	20200	–
B4	119000	–
B5	9270	–
B6	38800	–
B7	57700	–
B8	24400	–
B9	28700	–
B10	10300	–
B11	76800	–
B12	89400	–
B13	16400	–
B14	–	IC50, huKv1.3 current, QPatch patch clamp (human Kv1.3 (human)): > 10000 nM
B15	183000	–
B16	–	IC50, huKv1.3 current, QPatch patch clamp (human Kv1.3 (human)): 900 nM
B17	121000	–
B18	43300	–
B19	116000	–
B20	57700	–
B21	17400	–
